Source: US20210388087A1

Biological target: Human CD137 ECD (human)
Assay: single mutant vs template dBBDu183H

Sequence of Human CD137 ECD (human) (chain, as listed by the source limits assumed): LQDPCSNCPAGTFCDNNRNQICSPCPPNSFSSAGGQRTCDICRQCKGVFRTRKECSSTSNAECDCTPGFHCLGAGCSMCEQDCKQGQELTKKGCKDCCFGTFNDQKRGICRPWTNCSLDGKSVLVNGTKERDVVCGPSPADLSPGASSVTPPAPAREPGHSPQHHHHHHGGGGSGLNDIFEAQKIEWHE

Row | fold change of affinity [fold] | Binder
1 | 0 | H183/L072 VH T28S (antibody, name in Kabat numbering, V domains shown) VH: QVQLVESGGGLVQPGRSLRLSCAASGFSFSNAWMHWVRQAPGKGLEWVAQIKDKGNAYAAYYAPSVKGRFTISRDDSKNSIYLQMNSLKTEDTAVYYCHYVHYASASTVLPAFGVDAWGQGTTVTVSS VL: DIVMTQSPLSLPVTPGEPASISCQASQELVHMNRNTYLHWYQQKPGQAPRLLIYKVSNRFPGVPDRFSGSGSGTDFTLKISRVEAEDVGVYYCAQGTSVPFTFGQGTKLEIK
2 | 0 | H183/L072 VH D52aT (antibody, name in Kabat numbering, V domains shown) VH: QVQLVESGGGLVQPGRSLRLSCAASGFTFSNAWMHWVRQAPGKGLEWVAQIKTKGNAYAAYYAPSVKGRFTISRDDSKNSIYLQMNSLKTEDTAVYYCHYVHYASASTVLPAFGVDAWGQGTTVTVSS VL: DIVMTQSPLSLPVTPGEPASISCQASQELVHMNRNTYLHWYQQKPGQAPRLLIYKVSNRFPGVPDRFSGSGSGTDFTLKISRVEAEDVGVYYCAQGTSVPFTFGQGTKLEIK
3 | 0 | H183/L072 VH T28D (antibody, name in Kabat numbering, V domains shown) VH: QVQLVESGGGLVQPGRSLRLSCAASGFDFSNAWMHWVRQAPGKGLEWVAQIKDKGNAYAAYYAPSVKGRFTISRDDSKNSIYLQMNSLKTEDTAVYYCHYVHYASASTVLPAFGVDAWGQGTTVTVSS VL: DIVMTQSPLSLPVTPGEPASISCQASQELVHMNRNTYLHWYQQKPGQAPRLLIYKVSNRFPGVPDRFSGSGSGTDFTLKISRVEAEDVGVYYCAQGTSVPFTFGQGTKLEIK
4 | 0 | H183/L072 VH Y55S (antibody, name in Kabat numbering, V domains shown) VH: QVQLVESGGGLVQPGRSLRLSCAASGFTFSNAWMHWVRQAPGKGLEWVAQIKDKGNASAAYYAPSVKGRFTISRDDSKNSIYLQMNSLKTEDTAVYYCHYVHYASASTVLPAFGVDAWGQGTTVTVSS VL: DIVMTQSPLSLPVTPGEPASISCQASQELVHMNRNTYLHWYQQKPGQAPRLLIYKVSNRFPGVPDRFSGSGSGTDFTLKISRVEAEDVGVYYCAQGTSVPFTFGQGTKLEIK
5 | 0 | H183/L072 VH H35S (antibody, name in Kabat numbering, V domains shown) VH: QVQLVESGGGLVQPGRSLRLSCAASGFTFSNAWMSWVRQAPGKGLEWVAQIKDKGNAYAAYYAPSVKGRFTISRDDSKNSIYLQMNSLKTEDTAVYYCHYVHYASASTVLPAFGVDAWGQGTTVTVSS VL: DIVMTQSPLSLPVTPGEPASISCQASQELVHMNRNTYLHWYQQKPGQAPRLLIYKVSNRFPGVPDRFSGSGSGTDFTLKISRVEAEDVGVYYCAQGTSVPFTFGQGTKLEIK
6 | 0 | H183/L072 VH K52S (antibody, name in Kabat numbering, V domains shown) VH: QVQLVESGGGLVQPGRSLRLSCAASGFTFSNAWMHWVRQAPGKGLEWVAQISDKGNAYAAYYAPSVKGRFTISRDDSKNSIYLQMNSLKTEDTAVYYCHYVHYASASTVLPAFGVDAWGQGTTVTVSS VL: DIVMTQSPLSLPVTPGEPASISCQASQELVHMNRNTYLHWYQQKPGQAPRLLIYKVSNRFPGVPDRFSGSGSGTDFTLKISRVEAEDVGVYYCAQGTSVPFTFGQGTKLEIK
7 | 0 | H183/L072 VH Y55T (antibody, name in Kabat numbering, V domains shown) VH: QVQLVESGGGLVQPGRSLRLSCAASGFTFSNAWMHWVRQAPGKGLEWVAQIKDKGNATAAYYAPSVKGRFTISRDDSKNSIYLQMNSLKTEDTAVYYCHYVHYASASTVLPAFGVDAWGQGTTVTVSS VL: DIVMTQSPLSLPVTPGEPASISCQASQELVHMNRNTYLHWYQQKPGQAPRLLIYKVSNRFPGVPDRFSGSGSGTDFTLKISRVEAEDVGVYYCAQGTSVPFTFGQGTKLEIK
8 | 0 | H183/L072 VH M34T (antibody, name in Kabat numbering, V domains shown) VH: QVQLVESGGGLVQPGRSLRLSCAASGFTFSNAWTHWVRQAPGKGLEWVAQIKDKGNAYAAYYAPSVKGRFTISRDDSKNSIYLQMNSLKTEDTAVYYCHYVHYASASTVLPAFGVDAWGQGTTVTVSS VL: DIVMTQSPLSLPVTPGEPASISCQASQELVHMNRNTYLHWYQQKPGQAPRLLIYKVSNRFPGVPDRFSGSGSGTDFTLKISRVEAEDVGVYYCAQGTSVPFTFGQGTKLEIK
9 | 0 | H183/L072 VH D52aS (antibody, name in Kabat numbering, V domains shown) VH: QVQLVESGGGLVQPGRSLRLSCAASGFTFSNAWMHWVRQAPGKGLEWVAQIKSKGNAYAAYYAPSVKGRFTISRDDSKNSIYLQMNSLKTEDTAVYYCHYVHYASASTVLPAFGVDAWGQGTTVTVSS VL: DIVMTQSPLSLPVTPGEPASISCQASQELVHMNRNTYLHWYQQKPGQAPRLLIYKVSNRFPGVPDRFSGSGSGTDFTLKISRVEAEDVGVYYCAQGTSVPFTFGQGTKLEIK
10 | 0 | H183/L072 VH F29D (antibody, name in Kabat numbering, V domains shown) VH: QVQLVESGGGLVQPGRSLRLSCAASGFTDSNAWMHWVRQAPGKGLEWVAQIKDKGNAYAAYYAPSVKGRFTISRDDSKNSIYLQMNSLKTEDTAVYYCHYVHYASASTVLPAFGVDAWGQGTTVTVSS VL: DIVMTQSPLSLPVTPGEPASISCQASQELVHMNRNTYLHWYQQKPGQAPRLLIYKVSNRFPGVPDRFSGSGSGTDFTLKISRVEAEDVGVYYCAQGTSVPFTFGQGTKLEIK
11 | 0 | H183/L072 VH W33D (antibody, name in Kabat numbering, V domains shown) VH: QVQLVESGGGLVQPGRSLRLSCAASGFTFSNADMHWVRQAPGKGLEWVAQIKDKGNAYAAYYAPSVKGRFTISRDDSKNSIYLQMNSLKTEDTAVYYCHYVHYASASTVLPAFGVDAWGQGTTVTVSS VL: DIVMTQSPLSLPVTPGEPASISCQASQELVHMNRNTYLHWYQQKPGQAPRLLIYKVSNRFPGVPDRFSGSGSGTDFTLKISRVEAEDVGVYYCAQGTSVPFTFGQGTKLEIK
12 | 0 | H183/L072 VH K52T (antibody, name in Kabat numbering, V domains shown) VH: QVQLVESGGGLVQPGRSLRLSCAASGFTFSNAWMHWVRQAPGKGLEWVAQITDKGNAYAAYYAPSVKGRFTISRDDSKNSIYLQMNSLKTEDTAVYYCHYVHYASASTVLPAFGVDAWGQGTTVTVSS VL: DIVMTQSPLSLPVTPGEPASISCQASQELVHMNRNTYLHWYQQKPGQAPRLLIYKVSNRFPGVPDRFSGSGSGTDFTLKISRVEAEDVGVYYCAQGTSVPFTFGQGTKLEIK
13 | 0 | H183/L072 VH W33T (antibody, name in Kabat numbering, V domains shown) VH: QVQLVESGGGLVQPGRSLRLSCAASGFTFSNATMHWVRQAPGKGLEWVAQIKDKGNAYAAYYAPSVKGRFTISRDDSKNSIYLQMNSLKTEDTAVYYCHYVHYASASTVLPAFGVDAWGQGTTVTVSS VL: DIVMTQSPLSLPVTPGEPASISCQASQELVHMNRNTYLHWYQQKPGQAPRLLIYKVSNRFPGVPDRFSGSGSGTDFTLKISRVEAEDVGVYYCAQGTSVPFTFGQGTKLEIK
14 | 0 | H183/L072 VH W33S (antibody, name in Kabat numbering, V domains shown) VH: QVQLVESGGGLVQPGRSLRLSCAASGFTFSNASMHWVRQAPGKGLEWVAQIKDKGNAYAAYYAPSVKGRFTISRDDSKNSIYLQMNSLKTEDTAVYYCHYVHYASASTVLPAFGVDAWGQGTTVTVSS VL: DIVMTQSPLSLPVTPGEPASISCQASQELVHMNRNTYLHWYQQKPGQAPRLLIYKVSNRFPGVPDRFSGSGSGTDFTLKISRVEAEDVGVYYCAQGTSVPFTFGQGTKLEIK
15 | 0 | H183/L072 VH N53T (antibody, name in Kabat numbering, V domains shown) VH: QVQLVESGGGLVQPGRSLRLSCAASGFTFSNAWMHWVRQAPGKGLEWVAQIKDKGTAYAAYYAPSVKGRFTISRDDSKNSIYLQMNSLKTEDTAVYYCHYVHYASASTVLPAFGVDAWGQGTTVTVSS VL: DIVMTQSPLSLPVTPGEPASISCQASQELVHMNRNTYLHWYQQKPGQAPRLLIYKVSNRFPGVPDRFSGSGSGTDFTLKISRVEAEDVGVYYCAQGTSVPFTFGQGTKLEIK
16 | 0 | H183/L072 VH A32D (antibody, name in Kabat numbering, V domains shown) VH: QVQLVESGGGLVQPGRSLRLSCAASGFTFSNDWMHWVRQAPGKGLEWVAQIKDKGNAYAAYYAPSVKGRFTISRDDSKNSIYLQMNSLKTEDTAVYYCHYVHYASASTVLPAFGVDAWGQGTTVTVSS VL: DIVMTQSPLSLPVTPGEPASISCQASQELVHMNRNTYLHWYQQKPGQAPRLLIYKVSNRFPGVPDRFSGSGSGTDFTLKISRVEAEDVGVYYCAQGTSVPFTFGQGTKLEIK
17 | 0 | H183/L072 VH N31D (antibody, name in Kabat numbering, V domains shown) VH: QVQLVESGGGLVQPGRSLRLSCAASGFTFSDAWMHWVRQAPGKGLEWVAQIKDKGNAYAAYYAPSVKGRFTISRDDSKNSIYLQMNSLKTEDTAVYYCHYVHYASASTVLPAFGVDAWGQGTTVTVSS VL: DIVMTQSPLSLPVTPGEPASISCQASQELVHMNRNTYLHWYQQKPGQAPRLLIYKVSNRFPGVPDRFSGSGSGTDFTLKISRVEAEDVGVYYCAQGTSVPFTFGQGTKLEIK
18 | 0 | H183/L072 VH M34S (antibody, name in Kabat numbering, V domains shown) VH: QVQLVESGGGLVQPGRSLRLSCAASGFTFSNAWSHWVRQAPGKGLEWVAQIKDKGNAYAAYYAPSVKGRFTISRDDSKNSIYLQMNSLKTEDTAVYYCHYVHYASASTVLPAFGVDAWGQGTTVTVSS VL: DIVMTQSPLSLPVTPGEPASISCQASQELVHMNRNTYLHWYQQKPGQAPRLLIYKVSNRFPGVPDRFSGSGSGTDFTLKISRVEAEDVGVYYCAQGTSVPFTFGQGTKLEIK
19 | 0 | H183/L072 VH M34D (antibody, name in Kabat numbering, V domains shown) VH: QVQLVESGGGLVQPGRSLRLSCAASGFTFSNAWDHWVRQAPGKGLEWVAQIKDKGNAYAAYYAPSVKGRFTISRDDSKNSIYLQMNSLKTEDTAVYYCHYVHYASASTVLPAFGVDAWGQGTTVTVSS VL: DIVMTQSPLSLPVTPGEPASISCQASQELVHMNRNTYLHWYQQKPGQAPRLLIYKVSNRFPGVPDRFSGSGSGTDFTLKISRVEAEDVGVYYCAQGTSVPFTFGQGTKLEIK
20 | 0 | H183/L072 VH F29S (antibody, name in Kabat numbering, V domains shown) VH: QVQLVESGGGLVQPGRSLRLSCAASGFTSSNAWMHWVRQAPGKGLEWVAQIKDKGNAYAAYYAPSVKGRFTISRDDSKNSIYLQMNSLKTEDTAVYYCHYVHYASASTVLPAFGVDAWGQGTTVTVSS VL: DIVMTQSPLSLPVTPGEPASISCQASQELVHMNRNTYLHWYQQKPGQAPRLLIYKVSNRFPGVPDRFSGSGSGTDFTLKISRVEAEDVGVYYCAQGTSVPFTFGQGTKLEIK
21 | 0 | H183/L072 VH N53S (antibody, name in Kabat numbering, V domains shown) VH: QVQLVESGGGLVQPGRSLRLSCAASGFTFSNAWMHWVRQAPGKGLEWVAQIKDKGSAYAAYYAPSVKGRFTISRDDSKNSIYLQMNSLKTEDTAVYYCHYVHYASASTVLPAFGVDAWGQGTTVTVSS VL: DIVMTQSPLSLPVTPGEPASISCQASQELVHMNRNTYLHWYQQKPGQAPRLLIYKVSNRFPGVPDRFSGSGSGTDFTLKISRVEAEDVGVYYCAQGTSVPFTFGQGTKLEIK
